# Measurements taken from patent publication US20220235138A1, “CAR-T CELLS TARGETING IL-1RAP AND THEIR USE IN ACUTE MYELOID LEUKEMIA (AML)” (ETABLISSEMENT FRANCAIS DU SANG, priority 2019, published 2022).
# T1: recombinant IL-1RAP biotinylated protein (Homo sapiens, UniProt Q9NPH3)
# T1 sequence (Q9NPH3 21-359 limits assumed): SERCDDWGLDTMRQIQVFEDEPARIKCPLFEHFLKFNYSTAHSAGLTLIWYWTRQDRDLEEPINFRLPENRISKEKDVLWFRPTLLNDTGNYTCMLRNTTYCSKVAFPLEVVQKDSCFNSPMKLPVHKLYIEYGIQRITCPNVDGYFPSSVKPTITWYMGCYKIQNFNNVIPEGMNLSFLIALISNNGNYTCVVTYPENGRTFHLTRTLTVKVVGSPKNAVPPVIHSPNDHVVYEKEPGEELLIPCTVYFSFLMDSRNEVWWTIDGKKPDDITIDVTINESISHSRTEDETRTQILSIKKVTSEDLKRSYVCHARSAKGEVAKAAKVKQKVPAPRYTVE
# B1: IL-1RAP CAR: chimeric antigen receptor: #E3C3 scFv in frame with CD28-4.1BB-CD3z signaling chain; tested in transduced CEM, primary T or 293T cells (protein)
# scFv: QVQLQQPGAELMMPGASVKVSCEASGYTFTDSWMHWVKQRPGQGLEWIGAIDPSDSYTTYNQKFTGKATLSVDESSNTAYMQLSSLTSEDSAVYYCARYYSGSNYISPFPYWGQGTLVTVSAGGSGGGGSGGGGSVDMESQIQVFVFVFLWLSGVDGDIVMTQSHKFMSTSVGDRVTITCKASLDVSTAVAWYQQKPGQSPKLLIYSASYRYTGVPDRFTGSGSGTDFTFTISSVQAEDLAVYYCQQHYSPPFTFGSGTNLEIK
# modifications: left off: small tags and cut ends
# notes: chimeric antigen receptor: #E3C3 scFv in frame with CD28-4.1BB-CD3z signaling chain; tested in transduced CEM, primary T or 293T cells
# Legend:
# [1] = biological target: T1, recombinant IL-1RAP biotinylated protein; experiment: Flow cytometry detection of cell surface CAR with biotinylated recombinant IL-1RAP; assay type: binding; details: for amount of recombinant IL-1RAP protein required for recruiting maximum of cells: single experiment
# Protocol: CEM cell line or primary T cells were transduced either with Mock or CAR IL-1RAP. Cells were then incubated in presence of increasing amount of recombinant IL-1RAP labelled with biotin. Staining was performed with an anti-biotin fluorescent antibody and analyzed by flow cytometry. Percentage of Biotin+/CD19+ CEM or T-cells plotted against amount of labelled biotin recombinant protein. Dot plots of cytometry analyze were provided for representative staining, including maximum. Untransduced T cells (C0) or Mock T cells were used as control.
# Additional analysis using serial dilution of biotinylated IL-1RAP protein (from 20 ng to 2.4 pg/ml) and FACS analysis allow to detect either IL-1RAP CAR transduced CEM T cell line or primary T-cells.
# [2] = system: iCASP9/AP1903 suicide system; experiment: Optical microscopy of transduced 293T cells after CID AP1903 exposure; assay type: cell-based, human; details: CID AP1903 20 nM, 24 h (10 nM)
# [3] = transduced primary T-cells (GMTC)
molecule,measurement,setting,value
B1,CAR recognition and binding of IL-1RAP protein,[1],CAR specific recognition and binding of IL-1RAP protein
same,maximum percentage of Biotin+/CD19+ cells,[1]; transduced CEM T cell line,85.8%
same,amount of recombinant IL-1RAP protein required for recruiting maximum of cells,[1]; transduced CEM T cell line,1.25 ng
same,maximum percentage of Biotin+/CD19+ cells,[1]; [3],68.5%
same,amount of recombinant IL-1RAP protein required for recruiting maximum of cells,[1]; [3],0.15 ng
same,sensitivity of transduced 293T cell culture to CID,[2],sensitive to the CID
